Experiment: soluble on expression in E. coli; label from the status in PepcDB or PDB records

| Sequence | soluble on expression in E. coli |
| --- | --- |
| MSLARVGVVCHVHPDADTIGAGLALALVLDGCGKRVEVSFAAPATLPESLRSLPGCHLLVRPEVMRRDVDLVVTVDIPSVDRLGALGDLTDSGRELLVIDHHASNDLFGTANFIDPSADSTTTMVAEILDAWGKPIDPRVAHCIYAGLATDTGSFRWASVRGYRLAARLVEIGVDNATVSRTLMDSHPFTWLPLLSRVLGSAQLVSEAVGGRGLVYVVVDNREWVAARSEEVESIVDIVRTTQQAEVAAVFKEVEPHRWSVSMRAKTVNLAAVASGFGGGGHRLAAGYTTTGSIDDAVASLRAALGEGHHHHHH | not soluble |
| MSLEFQNLANRILDEKSRSFSQSNQTALETLLKPFREQIEGFQKRVNEIHSESVKGNAGLEAEIKKVLEIGLNMSQEASNLTSALKGEKKTLGNWGEVQLERALQLAGLEENVHYRAQAHFKDEQGGRNYPDFVLNLPDEKHLIIDSKMSLVAYESAVNSEDDFERERLLKEHISALKTHINDLHKKDYSNLIGMCSPNFVLMFIAVEPAYIEALKADPALFNYGYERNVIMVSHTTLMPILRTVANLWRIERGNAEAKEIAEKAGEIYNQICLVAERLNKLGNTLSTVSNQYNSTVTALVGQQGLVGKVERFKTLSAKANKTMPDVDLLNNQLDLARLNVLNQENLQEGHHHHHH | soluble |
| MSLRARYKQLVDTFAADIRTGILAPGTRLPTHRELAAREGLALVTASRVYAELEAMGLVSGETGRGTYVRETALPPGQGVDQPATAPGTLDLNFNYPALPGQAELLRSALRQLAATGDLEALLRYQPHAGRSHERATVARYLAGHGLVVEGEQVLLVSGAQHGLSTTLMALLRPGDVVAVDALTYPGFKVVAEAHGLELLAIPLSEQGPDLEAFERLCQRRRVRAVYAMPTLHNPMGWVLDLAWRQRLVAIGRAHGLLIIEDAAYAFLAQDPPAPLAALAPEITVYISGFSKNVATGLRVGYVVAPPAWVALIERAIRTSTWNTPGVMTAMACAWIEDGTVARLEHQKREDAQARQALAREALAGLAYVSHPNSYFLWLPLPEEVRADQVAMALLREKVSVSTAEPFVGAGPVPHAIRLALGSVAMADLGVALARVRQVIGRYAFEGHHHHHH | soluble |
| EMFYFEPVNIKKYLGSIGSELSDEVITIEQFFNLNSEYITIIDARSPREFSEKTISNAVNIPLFLTEEYETIGKLYKHEGKEVAIAKAGIIIQDGIKRIVSESLKLDPNKNLVVFCARGGMRSQSIATILKLLGFKVKRLVGGFKSYNISKT | not soluble |
| MGHHHHHHSHMGYKLQDLTDVQIMARLQEESLRQDYASTSASVSRHSSSVSLSSGKKGTCSDQEYDQYSLEDEEEFDHLPPPQPRLPRCSPFQRGIPHSQTFSSIRECRRSPSSQYFPSNNYQQQQYYSPQAQTPDQQPNRTNGDKLRRSMPNLARMPSTTAISSNISSPVTVRNSQSFDSSLHGAGNGISRIQSCIPSPGQLQHRVHSVGHFPVSIRQPLKATAYVSPTVQGSSNMPLSNGLQLYSNTGIPTPNKAAASGIMGRSALPRPSLAINGSNLPRSKIAQPVRSFLQPPKPLSSLSTLRDGNWRDGCY | not soluble |
| MGSSHHHHHHSSGLVPRGSHMKLYIIGAGPGDPDLITVKGLKLLQQADVVLYADSLVSQDLIAKSKPGAEVLKTAGMHLEEMVGTMLDRMREGKMVVRVHTGDPAMYGAIMEQMVLLKREGVDIEIVPGVTSVFAAAAAAEAELTIPDLTQTVILTRAEGRTPVPEFEKLTDLAKHKCTIALFLSSTLTKKVMKEFINAGWSEDTPVVVVYKATWPDEKIVRTTVKDLDDAMRTNGIRKQAMILAGWALDPATPWLSGLGENPAIRAMFVAHLHQALNMAVEEAA | soluble |
| MGCYHPLSGTDGTLMRHTLPIAPQFYVTAPQPCPYLAGRMERKLFTALQGEGAERLNNALSQQGFRRSQNVLYRPSCADCAACLSARIDVSAFRASRSQKRAMRRNAHLTRRATSPWATDEQYELFRRYLDSRHADGGMADMDVFEFAAMIEETPIRSRVIEYAHRDTRALIGVSLTDVLDDGLSMVYSFYDPDLHRDSLGTHMILDHIAIAREAGLPYVYLGYWVPGSPKMGYKSRFSGLEIYLGGRWQAMTDPEAHDAIRHPLSTDPIAEQVANIQLPDRWPTGDLEHHHHHH | not soluble |
| MASIINKQIISPTGRNMEIINYEILKKYPLCDRCFGRLYAKLLHTTNTERGRALKLYKALELEAKIKKAKEKGINYEEELELLKALAKSGVDEIRLEDIEIEKENCPWCRGIFNKQKMEKLLNKAIELLKEYDFDTFLIGTHIPEEIKDLEKEIETEFMESIKQEFGREFGKMLAVRLDKAPDKEYPDIVVHINPYTEEIYLQINPLFIKGRYRKLVRGIPQTRWPCRKCRGKGCELCNYTGKKYPISVEEIIAKPFLEATKGVDAKFHGAGREDIDVRMLGDGRPFVLEIKEPKIRKIDLNKIAEEINKDGRVEVLNLEFGVRKDKVIFKNTPHRKTYRALVECSDKITDEELKLLEKELENRTIYQKTPKRVLHRRADLERIRKVYKVKTSKVDDNHFEMIIYCDGGLYIKELISGDDGRTNPSVSSILNKNCICKELDVLKIHDNNLLEKG | soluble |
| MGSDKIHHHHHHMLYQGVSLILAPLLVFQGLNVRRTTPRLPEPEGERVGQTGANPALSLLILGDSAAAGVGVAFQQHALLGQVIEQLSPQLEFSYGLFAKTGSTTSTTLQALQEQIDIAHPILGQTHFDVIVTSLGVNDITSSISCEKWLLQQKALFELITKRYTPKLILVTALPPLGLFPALPHPLRWSLGQRANQFNRQLQQLLIKLNQQVDQPTDFRLIKLPLENPQPDITMLEFMRQVMASDGFHPGAPIYSAWANLVVEQIVGGIKSAAIA | not soluble |
| MRKLKYQRDFFPLLHLNYGSNWRCGMDRIAYFKSLLEKNPDNPMVHYSLGLEYFKVKDYENAIKHLERYLELQEDEGAAYRTLAKCYEELGEFQKAIEVLEEGIRQAMKYNHPSMAQEYQQWIEELKGMAF | soluble |
| MGSDKIHHHHHHMDEQLEQLMRQLSGLNEQVRNGAVYQSLGTRLGKLMDGIQRRRRTAVVLPDDQDGVKDVLAELRHQLEQNVPVTLTHEKLTLLTAHLSSTDMALRYQGINFTLYDALQQDALDSAQMAFLLDELSRPDALFSHILEPANTAVFGRSARVAMLAVILHFVTPDVQSHTPDLRRIVILAAMYLCLETDTRGFVNQHGWAHAFTAITDLLTVLAGTEALPRADKLFLMMTLLERVKRLNTPLIYGENDRMAMYLSELANRHQLYADTLLLSLKQWRQQVALHRRPDTIAGWNRFFNRKRLLDSLRLQSELPASLQKYLNSTIDFLG | not soluble |
| MLYNLAIVIYDLLVHFAAPFSRKPRKMMKGHWVVYELLRQQVEKGEQYIWFHAASLGEFEQGRPLIEMIREKYPDYKILLTFFSPSGYEVRKHYRGADIVCYLPFDKPRNVKKFLDIANPCMAFFIKYEFWKNYLDELHKRRIPVYSVSSIFRRDQIFFKWYGGTYRNVLKDFDHLFVQNEASKRYLSKIGICRVTVVGDTRFDRVLQIREEAKDLPLVKMFKGDNAFTFVAGSSWGPDEDLFLEYFNTHPEMKLIIAPHVIDENHLVEIISKLKRPYVRYTRADEKNVLKVDCLIIDCFGLLSSIYRYGEVAYIGGGFGVGIHNTLEAAVYGIPVIFGPKYQKFMEAIRLLEAKGAYSIKDYHELKTLLDRFQADDVFMRETGANAGYYVTSNAGATEKIMHMINFLEHHHHHH | not soluble |
| MGHHHHHHSHAFDLTVPTTNQFLLQYLRRQGVCVRTENLAKYVAELSLLEADPFLKYLPSLIAAAAFCLANYTVNKHFWPETLAAFTGYSLSEIVPCLSELHKAYLDIPHRPQQAIREKYKASKYLCVSLMEPPAVLLLQ | not soluble |
| MKLVVCSESDTAGQNIKDNLLTFADFEEKDVGEFKLYLSDEFYIAETKERLIYADHIDEKLAKYIDFEEILFASRHSSKDGRKIFTVHVSGNVGTADFGGKPYSLAKPSPQTMKNYVLALRERLDRKPEFEFTMEVTHHGPSEISKPSAFYEIGSTEEEWKDREAAEVVAEAMLDAIRAEKMDWNVAVGVGGTHYAPRQTEIMLTTTFTFGHNFAKYTFEHLTAEFLVKAVKLSEAEYIIIDEKSVNSAVKKIVNEAAEVAGVEVLKSKKVKKDFRLV | soluble |

— the DeepSol protein solubility set
